Changes are numbered by the printed parent chain. Bounds are passed on as bounds.

Assay in all cases: cleavage_in_vitro
Data set [1] has as its system T1, AvrII (Anabaena variabilis).
T1 sequence: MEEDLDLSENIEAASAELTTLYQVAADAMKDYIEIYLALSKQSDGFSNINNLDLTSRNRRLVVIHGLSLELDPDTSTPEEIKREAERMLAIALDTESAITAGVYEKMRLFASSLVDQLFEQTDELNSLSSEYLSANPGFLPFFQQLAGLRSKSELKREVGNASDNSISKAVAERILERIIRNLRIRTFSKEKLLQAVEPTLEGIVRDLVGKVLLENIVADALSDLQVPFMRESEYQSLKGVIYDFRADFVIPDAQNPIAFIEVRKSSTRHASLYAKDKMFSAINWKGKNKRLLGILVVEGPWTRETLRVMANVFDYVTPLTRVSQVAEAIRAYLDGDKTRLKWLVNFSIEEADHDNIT
The conditions noted are these: NEB1, 10 mM MgCl2, 37 C.

Data set [2] deals with T2, AvrII-HF Y104F (Anabaena variabilis).
T2 sequence: T1 sequence with Y104F
The conditions noted are these: NEB4, 10 mM Mg acetate, 37 C.

The target in data set [3] is T3, SalI (Streptomyces albus G) (UniProt Q53608).
T3 sequence: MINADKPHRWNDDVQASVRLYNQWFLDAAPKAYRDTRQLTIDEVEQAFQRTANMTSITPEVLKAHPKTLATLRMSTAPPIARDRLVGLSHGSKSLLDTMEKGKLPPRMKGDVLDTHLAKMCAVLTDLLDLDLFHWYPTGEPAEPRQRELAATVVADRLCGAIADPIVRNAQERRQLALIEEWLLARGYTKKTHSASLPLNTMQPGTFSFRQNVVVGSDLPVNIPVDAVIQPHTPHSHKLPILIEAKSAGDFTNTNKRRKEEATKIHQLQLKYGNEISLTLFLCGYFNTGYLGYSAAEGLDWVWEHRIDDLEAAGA
To be noted: NEB3, 10 mM MgCl2, 37 C; Table 10 gives FI 4.

Data set [4] has as its target T4, SalI-HF R107A (Streptomyces albus G) (UniProt Q53608).
T4 sequence: T3 sequence with R107A
The conditions noted are these: NEB2, 10 mM MgCl2, 37 C; Table 10 gives FI >=2000.

The target of another data set is T5, PvuII (Proteus vulgaris) (UniProt P23657).
T5 sequence: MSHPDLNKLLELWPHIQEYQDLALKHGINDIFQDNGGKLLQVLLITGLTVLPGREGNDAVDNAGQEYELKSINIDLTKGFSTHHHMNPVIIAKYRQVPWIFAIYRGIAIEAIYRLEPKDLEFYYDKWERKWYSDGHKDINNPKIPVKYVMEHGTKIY
To be noted: NEB1, 10 mM MgCl2, 37 C.

Data set [5] deals with T6, PvuII-HF T46G (Proteus vulgaris) (UniProt P23657).
T6 sequence: T5 sequence with T46G
To be noted: NEB4, 10 mM Mg acetate, 37 C.

Data set [6] concerns T7, BspQI-HF K279P/R388F (Bacillus sphaericus).
T7 sequence: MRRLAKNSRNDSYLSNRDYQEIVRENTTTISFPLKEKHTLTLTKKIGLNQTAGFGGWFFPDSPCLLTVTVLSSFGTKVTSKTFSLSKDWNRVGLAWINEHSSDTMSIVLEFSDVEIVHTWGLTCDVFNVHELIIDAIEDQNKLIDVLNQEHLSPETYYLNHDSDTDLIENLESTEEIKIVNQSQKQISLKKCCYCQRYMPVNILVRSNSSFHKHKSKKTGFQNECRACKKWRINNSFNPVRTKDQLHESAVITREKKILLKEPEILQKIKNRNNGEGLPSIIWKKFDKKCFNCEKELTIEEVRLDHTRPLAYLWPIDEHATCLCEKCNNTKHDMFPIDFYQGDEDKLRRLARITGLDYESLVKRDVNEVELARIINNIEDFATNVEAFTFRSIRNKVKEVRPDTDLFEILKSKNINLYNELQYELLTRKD
To be noted: NEB4, 10 mM Mg acetate, 50 C.

For the substance T7 DNA, the values for the activity (fidelity index) in data set [1] and in data set [2] were 64 and more than 1000, respectively.
For the substance lambda DNA HindIII-digested, the activity (fidelity index) in data set [3] is 32; in data set [4], more than 64000.
For the substance pBR322, the activity (fidelity index) with PvuII (Proteus vulgaris) amounted to 250; in data set [5], 500.
In turn, pUC19 displayed an activity (fidelity index) in data set [6] of more than 4000.
